Assay results: the supplement of paper PMC10126150
± gives the standard deviation of the averaged measurements.

What follows are sequences tested on ATP (assay: switch fluorescence ratio, 500 uM ATP over buffer (Cy3 cluster intensity, sum of 5 cycles each) (fold (ratio)); higher = stronger signal-on switching upon ATP binding; sequences stand for … in TCGTCGGCAGCGTCAGATGTGTATAAGAGACAGTTTTTTTTTTTTTTTTTTTTTTTTT…TC). Details: aptamer strand: ATP DNA aptamer (quencher-CACCTGGGGGAGTATTGCGGAGGAAGG + anchor), 100 nM annealed; ATP concentration: 500 uM.
In short: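 Switching-strand clusters labelled with Cy3 on a modified Illumina MiSeq flow-cell were annealed to 100 nM quencher-labelled ATP aptamer, imaged in selection buffer, and re-imaged after 15 min with 500 uM ATP at 22 °C. This was done over five cycles with NaOH stripping and re-annealing in between. The fluorescence ratio is summed target-cycle over summed buffer-cycle Cy3 intensity per cluster, averaged per switch-domain sequence, excluding clusters outside 100-1000 RFU.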
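Also: ATP exposure 15 min at 22 °C before imaging.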

| Sequence | switch fluorescence ratio |
| --- | --- |
| GGGTGTTAAC | 0.981 ± 0.057 |
| GGGTGTTAGT | 1 ± 0.016 |
| GGGTGTTCGG | 0.979 ± 0.017 |
| GGGTTAAGAT | 0.997 ± 0.0054 |
| GGGTTAAGTG | 1.02 ± 0.018 |
| GGGTTAGAGA | 0.9668 ± 0.0032 |
| GGGTTAGAGG | 0.9959 ± 0.0071 |
| GGGTTAGATC | 1.03 ± 0.039 |
| GGGTTAGCTT | 0.98 ± 0.031 |
| GGGTTAGTTG | 0.995 ± 0.046 |
| GGGTTATTTT | 0.999 ± 0.043 |
| GGGTTCGACA | 0.998 ± 0.019 |
| GGGTTCTAGT | 0.9972 ± 0.008 |
| GGGTTCTTAC | 0.999 ± 0.011 |
| GGGTTGAACG | 0.967 ± 0.03 |
| GGGTTGAGCG | 1.02 ± 0.012 |
| GGGTTGATTT | 0.958 ± 0.053 |
| GGGTTGCTTG | 0.981 ± 0.049 |
| GGGTTGCTTT | 1 ± 0.024 |
| GGGTTGGAGT | 0.9965 ± 0.0081 |
| GGGTTGGGAA | 0.988 ± 0.023 |
| GGGTTGGGTC | 0.996 ± 0.029 |
| GGGTTGTAGC | 0.9909 ± 0.0027 |
| GGGTTGTCGC | 1.01 ± 0.024 |
| GGGTTGTGAA | 0.994 ± 0.037 |
| GGGTTGTGGT | 1.01 ± 0.026 |

| Sequence | switch fluorescence ratio |
| --- | --- |
| GGGTTGTTCT | 0.9792 ± 0.0087 |
| GGGTTTAATA | 0.996 ± 0.034 |
| GGGTTTAGAT | 0.9854 ± 0.0059 |
| GGGTTTATCA | 1.03 ± 0.03 |
| GGGTTTATGC | 0.9921 ± 0.0067 |
| GGGTTTCAGG | 1.017 ± 0.0021 |
| GGGTTTCAGT | 0.9503 ± 0.0066 |
| GGGTTTCATG | 0.995 ± 0.024 |
| GGGTTTGAAT | 0.978 ± 0.032 |
| GGGTTTGAGG | 0.9806 ± 0.0072 |
| GGGTTTGCAC | 1.03 ± 0.026 |
| GGGTTTGCAT | 1.02 ± 0.034 |
| GGGTTTGCCT | 1.0216 ± 0.0002 |
| GGGTTTGGCG | 0.999 ± 0.2 |
| GGGTTTGTTG | 0.988 ± 0.026 |
| GGGTTTTAAG | 1 ± 0.021 |
| GGGTTTTACT | 0.991 ± 0.053 |
| GGGTTTTCTG | 0.945 ± 0.017 |
| GGGTTTTCTT | 0.961 ± 0.031 |
| GGGTTTTTCG | 0.994 ± 0.062 |
| GGTAAAAATT | 0.98453 ± 0.00014 |
| GGTAAAAGCT | 1.03 ± 0.057 |
| GGTAAAGGGT | 0.991 ± 0.016 |
| GGTAAAGGTA | 1 ± 0.029 |
| GGTAAATGTG | 1.03 ± 0.072 |
| GGTAACAGCT | 1.04 ± 0.051 |

| Sequence | switch fluorescence ratio |
| --- | --- |
| GGTAACAGTG | 1.07 ± 0.085 |
| GGTAAGACGT | 0.999 ± 0.038 |
| GGTAAGATAG | 1.01 ± 0.017 |
| GGTAAGGGGG | 0.99 ± 0.031 |
| GGTAATGCTT | 1 ± 0.05 |
| GGTAATTCTG | 0.9837 ± 0.0033 |
| GGTAATTTGG | 1 ± 0.023 |
| GGTACAGAAT | 0.9997 ± 0.0012 |
| GGTACAGAGC | 1 ± 0.064 |
| GGTACCAGGC | 1.019 ± 0.0021 |
| GGTACGAAGT | 1.01 ± 0.027 |
| GGTACGGATC | 1.03 ± 0.018 |
| GGTACGGGGT | 1 ± 0.028 |
| GGTACTATCG | 0.961 ± 0.071 |
| GGTACTATT | 0.991 ± 0.04 |
| GGTACTGGTA | 0.984 ± 0.057 |
| GGTACTTAGG | 1.06 ± 0.031 |
| GGTACTTGGG | 0.984 ± 0.033 |
| GGTACTTTTT | 1.07 ± 0.14 |
| GGTAGAGGGG | 0.9628 ± 0.0078 |
| GGTAGAGGTT | 0.985 ± 0.019 |
| GGTAGATGGT | 1.01 ± 0.012 |
| GGTAGGGTGG | 1.02 ± 0.048 |
| GGTAGGTGTC | 0.985 ± 0.031 |
| GGTAGGTGTT | 1.04 ± 0.037 |
| GGTAGTAAGA | 1.01 ± 0.047 |

| Sequence | switch fluorescence ratio |
| --- | --- |
| GGTAGTAATT | 0.998 ± 0.0029 |
| GGTAGTCTTT | 0.996 ± 0.02 |
| GGTAGTGAGC | 1.02 ± 0.02 |
| GGTAGTGCGT | 0.968 ± 0.043 |
| GGTAGTTAGG | 1.03 ± 0.013 |
| GGTATAAAGA | 0.984 ± 0.049 |
| GGTATAAGGG | 0.997 ± 0.02 |
| GGTATAATGG | 0.971 ± 0.03 |
| GGTATAATTA | 0.964 ± 0.024 |
| GGTATAATTT | 1.04 ± 0.044 |
| GGTATACTGT | 0.975 ± 0.029 |
| GGTATCAAGT | 0.9675 ± 0.0076 |
| GGTATGGAGC | 0.971 ± 0.039 |
| GGTATGGCGC | 0.986 ± 0.058 |
| GGTATGGGAG | 0.9913 ± 0.001 |
| GGTATGGGGA | 1 ± 0.022 |
| GGTATTAAGT | 1 ± 0.011 |
| GGTATTATCG | 0.969 ± 0.017 |
| GGTATTGCTT | 0.995 ± 0.0021 |
| GGTATTGGCA | 0.996 ± 0.022 |
| GGTATTGGCC | 0.987 ± 0.013 |
| GGTATTTATC | 0.986 ± 0.038 |
| GGTATTTTTA | 0.9758 ± 0.0046 |
| GGTCAAACCA | 1.03 ± 0.0097 |
| GGTCAATCTA | 0.946 ± 0.045 |
| GGTCACGGCA | 1 ± 0.013 |

| Sequence | switch fluorescence ratio |
| --- | --- |
| GGTCAGGGTT | 0.954 ± 0.035 |
| GGTCAGTGAT | 1.01 ± 0.06 |
| GGTCATAGTG | 1.01 ± 0.018 |
| GGTCATTTAG | 0.994 ± 0.031 |
| GGTCCAAAAT | 0.9848 ± 0.0089 |
| GGTCCAATTA | 0.977 ± 0.015 |
| GGTCCACCGT | 0.989 ± 0.014 |
| GGTCCAGGTC | 1.12 ± 0.057 |
| GGTCCAGGTT | 1.09 ± 0.068 |
| GGTCCATGCT | 0.961 ± 0.032 |
| GGTCCGTAGG | 1.01 ± 0.033 |
| GGTCCTACTG | 1.01 ± 0.017 |
| GGTCCTGTTG | 1.01 ± 0.035 |
| GGTCGCGGAT | 1.01 ± 0.019 |
| GGTCGCGTAG | 1.01 ± 0.03 |
| GGTCGCTTTT | 0.9949 ± 0.0043 |
| GGTCGGACGT | 0.992 ± 0.086 |
| GGTCGGGACC | 0.998 ± 0.033 |
| GGTCGGGGGT | 1.03 ± 0.039 |
| GGTCGGGTTT | 1.01 ± 0.014 |
| GGTCGTAGCC | 0.9719 ± 0.0084 |
| GGTCGTCTGC | 0.984 ± 0.018 |
| GGTCTACCGG | 1.01 ± 0.017 |
| GGTCTAGAAA | 1.21 ± 0.3 |
| GGTCTCTGGG | 1 ± 0.016 |
| GGTCTGCGCG | 1.02 ± 0.037 |

| Sequence | switch fluorescence ratio |
| --- | --- |
| GGTCTGTATT | 0.972 ± 0.012 |
| GGTCTGTGTG | 0.984 ± 0.028 |
| GGTCTGTTTC | 1.01 ± 0.015 |
| GGTCTTGAGG | 1.01 ± 0.028 |
| GGTCTTGTTG | 1.02 ± 0.036 |
| GGTGAAAGCC | 0.98 ± 0.049 |
| GGTGAAAGGA | 0.979 ± 0.058 |
| GGTGAACAGT | 0.97143 ± 0.00048 |
| GGTGAACCGT | 1.001 ± 0.0046 |
| GGTGAAGGAT | 0.982 ± 0.026 |
| GGTGAAGGTA | 0.929 ± 0.045 |
| GGTGAATAAT | 0.9969 ± 0.0065 |
| GGTGAGAAGT | 1.01 ± 0.013 |
| GGTGAGAGGT | 0.9696 ± 0.0055 |
| GGTGAGGCAA | 1.19 ± 0.12 |
| GGTGATGATC | 1.038 ± 0.0044 |
| GGTGATGGGT | 0.971 ± 0.04 |
| GGTGCAACAT | 1.03 ± 0.051 |
| GGTGCGATGC | 1.7 ± 0.081 |
| GGTGCGGTCG | 0.9824 ± 0.0053 |
| GGTGCGTACG | 1.01 ± 0.058 |
| GGTGCTACAC | 1.04 ± 0.025 |
| GGTGCTATCT | 0.992 ± 0.015 |
